Experimental data reported in publication PMC11910092, “Modulating the complement system through epitope-specific inhibition by complement C3 inhibitors” (The Journal of Biological Chemistry, 2025).

Experiments:
Assay in all cases: ELISA; plate coated with 2 ug/ml C3, C3b or recombinant C345C domain overnight at 4 °C; MI3 dilution series in PBST, 37 °C, 1 h; detected with HRP anti-His antibody (HRP anti-VHH antibody for the C345C domain)
Conditions in all cases: both partners purified
[1] = target: T1, recombinant C345C domain of C3 and C3b (Homo sapiens)
T1 construct: C345C domain of complement C3; also called C345C domain (recombinant expression); source: HEK293-F, transfected (pCDNA3.1(+)), secreted, purified (Ni-NTA agarose, anion exchange GigaCap Q-650M)
T1 chain: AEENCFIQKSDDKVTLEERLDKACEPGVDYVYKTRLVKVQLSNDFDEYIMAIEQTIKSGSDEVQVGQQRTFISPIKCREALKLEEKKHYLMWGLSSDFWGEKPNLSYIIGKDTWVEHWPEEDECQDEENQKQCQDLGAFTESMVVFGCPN

complement C3 = target: T2, complement C3 (Homo sapiens (plasma-derived), UniProt P01024)
T2 construct: Bought protein; it works with normal human serum and anti-human detection antibodies; source: bought: Complement Technology (cat#A113)
T2 sequence (P01024 23-667): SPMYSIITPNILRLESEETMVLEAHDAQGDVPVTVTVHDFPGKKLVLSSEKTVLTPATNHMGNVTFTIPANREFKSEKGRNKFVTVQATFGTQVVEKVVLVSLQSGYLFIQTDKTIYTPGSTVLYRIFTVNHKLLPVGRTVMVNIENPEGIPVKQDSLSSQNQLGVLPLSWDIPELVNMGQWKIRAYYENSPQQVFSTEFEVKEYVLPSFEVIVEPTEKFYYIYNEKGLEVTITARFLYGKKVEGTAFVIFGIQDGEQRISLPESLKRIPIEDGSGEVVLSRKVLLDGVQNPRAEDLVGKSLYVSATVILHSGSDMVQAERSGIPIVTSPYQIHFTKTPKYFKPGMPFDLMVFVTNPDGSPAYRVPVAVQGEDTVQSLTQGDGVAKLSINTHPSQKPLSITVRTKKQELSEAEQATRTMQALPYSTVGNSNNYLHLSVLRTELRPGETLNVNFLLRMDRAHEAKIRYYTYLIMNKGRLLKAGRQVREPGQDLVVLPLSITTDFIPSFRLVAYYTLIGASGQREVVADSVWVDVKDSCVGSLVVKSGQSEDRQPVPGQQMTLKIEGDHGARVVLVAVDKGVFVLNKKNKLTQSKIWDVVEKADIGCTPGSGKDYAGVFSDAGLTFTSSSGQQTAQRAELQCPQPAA

complement C3b = target: T3, complement C3b (Homo sapiens (plasma-derived), UniProt P01024)
T3 construct: Bought protein; source: bought: Complement Technology (cat#A114)
T3 sequence (P01024 23-667): as above

- EC50 [1]: 0.19 nM
- EC50 (complement C3): 0.17 nM
- EC50 (complement C3b): 0.14 nM
B1: MI3 (nanobody) (VHH)
VHH: DVQLQESGGGLVQPGGSLRLSCVASGSTFSTYHMGWYRQAPGKQRELIAGITSGGRISYVDSVKGRFNISRDNAKNTVYLQMNTLKPEDTAVYYCNMLGEFAGRPPWGQGTQVTVSS
notes: proprietary nanobody; Provided by Quaerite Biopharm Research; source: HEK293-F, transfected (pCDNA3.1(+)), secreted, purified (Ni-NTA agarose, ion exchange GigaCap Q-650S); not shown: 6xHis (after a GGGGS linker), C-terminal, kept
